From patent publication US20210285971

Assays:
[1] = biological target: synthetic Aβ40 peptide, P05067
[2] = biological target: synthetic Aβ42 peptide, P05067
Sequence of synthetic Aβ42 peptide, P05067 (P05067 whole entry, looked up, tested part not stated): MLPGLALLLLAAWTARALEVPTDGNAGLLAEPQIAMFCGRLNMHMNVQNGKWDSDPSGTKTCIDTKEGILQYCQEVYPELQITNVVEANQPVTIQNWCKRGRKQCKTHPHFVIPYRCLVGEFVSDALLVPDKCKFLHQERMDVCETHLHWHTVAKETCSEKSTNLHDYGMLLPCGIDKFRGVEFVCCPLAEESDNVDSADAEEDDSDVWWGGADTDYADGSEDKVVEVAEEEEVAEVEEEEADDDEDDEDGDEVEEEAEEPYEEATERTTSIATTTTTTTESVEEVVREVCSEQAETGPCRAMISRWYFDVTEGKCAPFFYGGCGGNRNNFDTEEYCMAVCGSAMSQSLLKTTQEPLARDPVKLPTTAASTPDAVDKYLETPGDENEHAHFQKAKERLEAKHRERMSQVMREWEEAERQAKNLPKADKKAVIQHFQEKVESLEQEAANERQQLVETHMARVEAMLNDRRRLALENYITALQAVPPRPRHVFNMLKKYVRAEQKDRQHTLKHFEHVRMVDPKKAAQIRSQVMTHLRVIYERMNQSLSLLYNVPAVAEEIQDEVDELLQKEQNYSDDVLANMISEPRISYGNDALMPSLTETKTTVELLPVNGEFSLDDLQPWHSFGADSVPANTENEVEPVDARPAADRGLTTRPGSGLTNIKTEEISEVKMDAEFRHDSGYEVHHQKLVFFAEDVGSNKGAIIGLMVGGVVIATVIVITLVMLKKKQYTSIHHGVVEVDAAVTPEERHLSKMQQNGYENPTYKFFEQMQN

Sequence of synthetic Aβ40 peptide, P05067 (P05067 whole entry, looked up, tested part not stated): as above

B1: BACE1 from Fc purification (protein)
chain: ETDEEPEEPGRRGSFVEMVDNLRGKSGQGYYVEMTVGSPPQTLNILVDTGSSNFAVGAAPHPFLHRYYQRQLSSTYRDLRKGVYVPYTQGKWEGELGTDLVSIPHGPNVTVRANIAAITESDKFFINGSNWEGILGLAYAEIARPDDSLEPFFDSLVKQTHVPNLFSLQLCGAGFPLNQSEVLASVGGSMIIGGIDHSLYTGSLWYTPIRREWYYEVIIVRVEINGQDLKMDCKEYNYDKSIVDSGTTNLRLPKKVFEAAVKSIKAASSTEKFPDGFWLGEQLVCWQAGTTPWNIFPVISLYLMGEVTNQSFRITILPQQYLRPVEDVATSQDDCYKFAISQSSTGTVMGAVIMEGFYVVFDRARKRIGFAVSACHVHDEFRTAAVEGPFVTLDMEDCGYNIPQTDESTLMTIAY
B1 was tested, and the “cleavage in vitro analyzed by MALDI-MS” value [1] was “cleavage of Aβ40 and Aβ42 by BACE1 in vitro” and the “cleavage in vitro analyzed by MALDI-MS” value [2] was “cleavage of Aβ40 and Aβ42 by BACE1 in vitro”.
